Test results from patent US20060233706A1, “Marked peptides having affinity for a phospholipid and uses” (COMMISSARIAT A L'ENERGIE, priority 2002, published 2006).

What was measured:
[1] = prior art observation; cited from earlier work
[2] = Labelling of the kidney in the same rats (fluorescence microscopy of kidney sections); type: in vivo; details: 200 μg into the jugular vein, 60 minutes, labelling linked to partial elimination of the products
Description: Briefly, four rats (300 g each) were anaesthetized, intubated and ventilated. Myocardial ischaemia was triggered by a transient occlusion of the coronary artery. After 30 minutes of occlusion, the coronary artery was reperfused for one hour.
At the end of the reperfusion period, the AFIM-fluorescein peptides of Example 6 were injected into the jugular vein in an amount of 200 μg of peptide for each of two of the rats in a total volume of 1 ml.
By way of comparison, 200 μg of annexin 5-fluorescein (compounds of the prior art) were injected under the same conditions for each of the other two rats in a total volume of 1 ml.
The rats were sacrificed after 60 minutes.
Five organs were stored for this study: the heart, the lung, the kidney, the liver and the brain. They were washed and rinsed in the presence of formalin. […]
A few sections were stained with haematoxylin. The sections were examined under a fluorescence microscope and the adjacent sections stained with haematoxylin were examined with a visible light microscope. The sections stained with haematoxylin (labelled H1 and H2 respectively in the appended FIGS. 1 and 2) allow visualisation of the architecture of the tissues and fluorescence microscopy to detect the labelling with AFIM-fluorescein (AFIM-F) or with annexin 5-fluorescein (A5-F).

Substance: annexin 5: prior art annexin protein that binds anionic phospholipids in a calcium-dependent manner
- Toxicity [1]: renal toxicity
- Labelling of the entire renal tissue [2]: strongly labelled
